# Results from patent publication US20200353049A1.
# Values joined by “and” are separate entries in the source; they are usually repeats but may differ in a detail not shown here. Identical values can stand only once.
# What was measured:
# [1] = target: IL-22R1a extracellular domain (ECD) (UniProt Q8N6P7); experiment: potency assay (binding ELISA on plate-coated IL-22R1a ECD), relative to reference standard (100%); stored 5 C, 6 months
# [2] = target: IL-22R1a extracellular domain (ECD) (UniProt Q8N6P7); experiment: potency assay (binding ELISA on plate-coated IL-22R1a ECD), relative to reference standard (100%); stored 25 C, 1 month
# [3] = target: IL-22R1a extracellular domain (ECD) (UniProt Q8N6P7); experiment: potency assay (binding ELISA on plate-coated IL-22R1a ECD), relative to reference standard (100%); stored 5 C, 30 months
# [4] = target: IL-22R1a extracellular domain (ECD) (UniProt Q8N6P7); experiment: binding ELISA on plate-coated IL-22R1a ECD, relative to Reference Standard (100%); stored -20 C, 30 months
# [5] = target: IL-22R1a extracellular domain (ECD) (UniProt Q8N6P7); experiment: binding ELISA on plate-coated IL-22R1a ECD, relative to Reference Standard; pH 7.0 formulation stored 4 weeks at 30 C
# [6] = target: IL-22R1a extracellular domain (ECD) (UniProt Q8N6P7); experiment: binding ELISA on plate-coated IL-22R1a ECD, relative to Reference Standard; 10 mM sodium phosphate, 240 mM sucrose, 0.02% PS20, pH 7.0; control sample
# [7] = target: IL-22R1a extracellular domain (ECD) (UniProt Q8N6P7); experiment: potency assay (binding ELISA on plate-coated IL-22R1a ECD), relative to reference standard (100%); T=0
# [8] = target: IL-22R1a extracellular domain (ECD) (UniProt Q8N6P7); experiment: binding ELISA on plate-coated IL-22R1a ECD, relative to Reference Standard (100%); stored 5 C, 2 months
# [9] = target: IL-22R1a extracellular domain (ECD) (UniProt Q8N6P7); experiment: potency assay (binding ELISA on plate-coated IL-22R1a ECD), relative to reference standard (100%); stored 5 C, 9 months
# [10] = target: IL-22R1a extracellular domain (ECD) (UniProt Q8N6P7); experiment: binding ELISA on plate-coated IL-22R1a ECD, relative to Reference Standard (100%); stored -20 C, 6 months
# [11] = target: IL-22R1a extracellular domain (ECD) (UniProt Q8N6P7); experiment: potency assay (binding ELISA on plate-coated IL-22R1a ECD); change after 2 weeks at 40 C; this end matches Reference Standard Batch in Table 26 (104 to 71)
# [12] = target: IL-22R1a extracellular domain (ECD) (UniProt Q8N6P7); experiment: potency assay (binding ELISA on plate-coated IL-22R1a ECD), relative to reference standard (100%); stored 5 C, 12 months
# [13] = target: IL-22R1a extracellular domain (ECD) (UniProt Q8N6P7); experiment: binding ELISA on plate-coated IL-22R1a ECD, relative to Reference Standard (100%); stored 5 C, 3 months
# [14] = target: IL-22R1a extracellular domain (ECD) (UniProt Q8N6P7); experiment: binding ELISA on plate-coated IL-22R1a ECD, relative to Reference Standard (100%); stored -20 C, 60 months
# [15] = target: IL-22R1a extracellular domain (ECD) (UniProt Q8N6P7); experiment: potency assay (binding ELISA on plate-coated IL-22R1a ECD), relative to reference standard (100%); stored 25 C, 3 months
# [16] = target: IL-22R1a extracellular domain (ECD) (UniProt Q8N6P7); experiment: potency assay (binding ELISA on plate-coated IL-22R1a ECD), relative to reference standard; 40 C stress, day 10
# [17] = target: IL-22R1a extracellular domain (ECD) (UniProt Q8N6P7); experiment: binding ELISA on plate-coated IL-22R1a ECD, relative to Reference Standard (100%); stored 5 C, 6 months
# [18] = target: IL-22R1a extracellular domain (ECD) (UniProt Q8N6P7); experiment: potency assay (binding ELISA on plate-coated IL-22R1a ECD), relative to reference standard (100%); stored 25 C, 3 months; remark: listed apart in the source
# [19] = target: IL-22R1a extracellular domain (ECD) (UniProt Q8N6P7); experiment: potency assay (binding ELISA on plate-coated IL-22R1a ECD); change after 2 weeks at 40 C; this end matches Clinical Batch 3 in Table 26 (85 to 57)
# [20] = target: IL-22R1a extracellular domain (ECD) (UniProt Q8N6P7); experiment: potency assay (binding ELISA on plate-coated IL-22R1a ECD), relative to reference standard (100%); stored 5 C, 24 months
# [21] = target: IL-22R1a extracellular domain (ECD) (UniProt Q8N6P7); experiment: potency assay (binding ELISA on plate-coated IL-22R1a ECD), relative to reference standard (100%); stored 5 C, 18 months
# [22] = target: IL-22R1a extracellular domain (ECD) (UniProt Q8N6P7); experiment: binding ELISA on plate-coated IL-22R1a ECD, relative to Reference Standard (100%); stored -20 C, 9 months
# [23] = target: IL-22R1a extracellular domain (ECD) (UniProt Q8N6P7); experiment: binding ELISA on plate-coated IL-22R1a ECD, relative to Reference Standard (100%); stored 5 C, 6 months; remark: listed apart in the source
# [24] = target: IL-22R1a extracellular domain (ECD) (UniProt Q8N6P7); experiment: potency assay (binding ELISA on plate-coated IL-22R1a ECD), relative to reference standard (100%); stored 5 C, 3 months
# [25] = target: IL-22R1a extracellular domain (ECD) (UniProt Q8N6P7); experiment: binding ELISA on plate-coated IL-22R1a ECD, relative to Reference Standard (100%); stored -20 C, 18 months
# [26] = target: IL-22R1a extracellular domain (ECD) (UniProt Q8N6P7); experiment: potency assay (binding ELISA on plate-coated IL-22R1a ECD), relative to reference standard (100%); stored 5 C, 24 months; remark: listed apart in the source
# [27] = target: IL-22R1a extracellular domain (ECD) (UniProt Q8N6P7); experiment: binding ELISA on plate-coated IL-22R1a ECD, relative to Reference Standard (100%); stored -20 C, 3 months
# Sequence of UniProt Q8N6P7 (Q8N6P7 16-228 limits assumed): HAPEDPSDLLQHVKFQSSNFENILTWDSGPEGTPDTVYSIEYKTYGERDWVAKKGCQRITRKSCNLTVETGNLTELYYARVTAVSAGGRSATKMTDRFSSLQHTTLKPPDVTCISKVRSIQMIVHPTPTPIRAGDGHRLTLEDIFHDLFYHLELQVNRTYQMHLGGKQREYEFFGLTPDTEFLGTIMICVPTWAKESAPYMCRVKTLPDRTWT
substance,measurement,setting,value
IL-22 Fc fusion protein,Potency (% relative potency) (% relative potency),[1],100
same,Potency (% relative potency) (% relative potency),[2],68
same,Potency (% relative potency) (% relative potency),[3],65
same,Potency by Binding Assay (% relative potency) (% relative potency),[4],70
same,Estimated % relative potency (n = 2) (% relative potency),[5],79
same,Estimated % relative potency (n = 2) (% relative potency),[6],89
same,Potency (% relative potency) (% relative potency),[7],73
same,Potency by Binding Assay (% relative potency) (% relative potency),[8],75
same,Potency (% relative potency) (% relative potency),[9],63
same,Potency by Binding Assay (% relative potency) (% relative potency),[10],112
same,decrease in % relative potency (% relative potency),[11],33
same,Potency (% relative potency) (% relative potency),[12],67
same,Potency by Binding Assay (% relative potency) (% relative potency),[13],105
same,Potency by Binding Assay (% relative potency) (% relative potency),[14],99
same,Potency (% relative potency) (% relative potency),[15],57
same,Potency (% relative potency) (% relative potency),[16],84 and 65
same,Potency by Binding Assay (% relative potency) (% relative potency),[17],71
same,Potency (% relative potency) (% relative potency),[18],95
same,decrease in % relative potency (% relative potency),[19],28
same,Potency (% relative potency) (% relative potency),[20],83
same,Potency (% relative potency) (% relative potency),[21],64
same,Potency by Binding Assay (% relative potency) (% relative potency),[22],68
same,Potency by Binding Assay (% relative potency) (% relative potency),[23],98
same,Potency (% relative potency) (% relative potency),[24],73
same,Potency by Binding Assay (% relative potency) (% relative potency),[25],70
same,Potency (% relative potency) (% relative potency),[26],66
same,Potency by Binding Assay (% relative potency) (% relative potency),[27],72
